Laboratory results reported in US20250388676A1 (Sanofi, published 2025).
Where a chain is given by its changes, count along the chain named.

T1: human GITR (human, UniProt Q9Y5U5 26-241)
T1 construct: whole, on cells; also called hGITR; TNFRSF18
T1 sequence (looked up): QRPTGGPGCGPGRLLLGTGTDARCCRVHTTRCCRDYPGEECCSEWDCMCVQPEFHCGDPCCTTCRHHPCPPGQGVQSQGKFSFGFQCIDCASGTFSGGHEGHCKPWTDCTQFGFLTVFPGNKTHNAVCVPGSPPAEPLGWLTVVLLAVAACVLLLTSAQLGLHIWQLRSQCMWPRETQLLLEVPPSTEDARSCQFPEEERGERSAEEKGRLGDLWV

B1: GITRL/anti-PD-1 mAb2 (bispecific antibody, human IgG1, kappa, L234A L235A)
heavy: not shown
light: EIVLTQSPATLSLSPGERATLSCGASQSVPINFLAWYQQKPGLAPRLLIYEASSRHTGIPDRFSGSGSGTDFTLTISRLEPEDFAVYYCGQYGSSPYTFGQGTKLEIKRTVAAPSVFIFPPSDEQLKSGTASVVCLLNNFYPREAKVQWKVDNALQSGNSQESVTEQDSKDSTYSLSSTLTLSKADYEKHKVYACEVTHQGLSSPVTKSFNRGEC
notes: Single-chain GITRL trimer inserted between VH and CH1 of each heavy chain; bivalent for PD-1, hexavalent for GITR; also called GITRL trimer/anti-PD-1 mAb2; single-chain GITRL trimer/anti-PD-1 mAb2
B2: GITRL/anti-PD-1 mAb1 (bispecific antibody, human IgG1, kappa, L234A L235A)
heavy: not shown
light: B1 light with P30S, H56A, G90Q
notes: Single-chain GITRL trimer inserted between VH and CH1 of each heavy chain; bivalent for PD-1, hexavalent for GITR; also called GITRL trimer/anti-PD-1 mAb1; single-chain GITRL trimer/anti-PD-1 mAb1
B3: GITRLmut/anti-PD-1 mAb2 (antibody, V domains shown)
VH: QLQLQESGPGLVKPSETLSLTCTVSGGSISSSSYFWGWIRQPPGKGLEWIGSIYRSGSTYYNPSLKSRVTISVDTSKNQFSLKLSSVTAADTAVYYCARGITGDPGDYWGQGTLVTVSS
VL: EIVLTQSPATLSLSPGERATLSCGASQSVPINFLAWYQQKPGLAPRLLIYEASSRHTGIPDRFSGSGSGTDFTLTISRLEPEDFAVYYCGQYGSSPYTFGQGTKLEIK
B4: GITRLmut/anti-PD-1 mAb1 (antibody, V domains shown)
VH: B3 VH with S31T
VL: B3 VL with P30S, H56A, G90Q

Legend:
cynomolgus PD-1 [1] = target: T2, cynomolgus PD-1 (cynomolgus monkey); experiment: flow cytometry on pre-B 300.19 cells expressing cyno PD-1, anti-human IgG Fc detection, 4PL fit
T2 construct: whole, on cells; also called cyno PD-1; cyPD-1
Method: (§1) Binding properties of the bispecific molecules and controls to multiple targets expressed on cell surfaces were evaluated with flow cytometry. […] Cell suspensions were analyzed with iQue Screener 3 (Sartorius, Intellicyt). In each washing step, plates were centrifuged for 2 minutes at 300×g at 4° C., supernatants discarded and buffer dispensed by Biotek ELX405 microplate washer (BioTek). Other reagents were added either manually or with ViaFlo (Integra). EC50s were estimated by dose response modelling. Curves were fit using 4 parameter logistic regression in GraphPad (GraphPad Software Inc.).

cynomolgus GITR [2] = target: T3, cynomolgus GITR (cynomolgus monkey); experiment: flow cytometry on NFkB-NlucP/HEK293 cells expressing cyno GITR, anti-human IgG Fc detection, 4PL fit
T3 construct: whole, on cells; also called cyno GITR; cyGITR
Method: as §1

human PD-1 [3] = target: T4, human PD-1 (human, UniProt Q15116 25-288); experiment: flow cytometry on pre-B 300.19 cells expressing human PD-1, anti-human IgG Fc detection, 4PL fit
T4 construct: On pre-B 300.19 cells stably expressing human PD-1, on NFAT-RE/PD-1 Jurkat reporter cells and on T cells of hGITR/hPD-1 knock-in mice; also called hPD-1; PD1 (on reporter cells)
Method: as §1

human GITR [4] = target: T1, human GITR; experiment: receptor occupancy by flow cytometry on activated splenic CD8+ T cells of hGITR/hPD-1 KI mice; free GITR detected with competing Anti-hGITR-BV605, total GITR with non-competing Anti-hGITR NANOBODY-A488 [panel B]
From the text: (§2) Anti-hGITR NANOBODY®-A488 as non-competing agent detecting total GITR Activated T cells were then washed and analyzed on a Cytek® Aurora flow cytometer.

human GITR [5] = target: T1, human GITR; experiment: flow cytometry on NFkB-NlucP/HEK293 cells expressing human GITR, anti-human IgG Fc detection, 4PL fit
Method: as §1

human PD-1 [6] = target: T4, human PD-1; experiment: receptor occupancy by flow cytometry on activated splenic CD8+ T cells of hGITR/hPD-1 KI mice; free PD-1 detected with competing Anti-hPD-1-BV421, total PD-1 with non-competing Anti-hPD-1 NANOBODY-A647 [panel A]
From the text: as §2

cynomolgus GITR [7] = target: T3, cynomolgus GITR; experiment: cell-based or functional assay
human GITR [8] = target: T1, human GITR; experiment: cell-based or functional assay
human PD-1 [9] = target: T4, human PD-1; experiment: cell-based or functional assay
human GITR [10] = target: T1, human GITR; experiment: receptor occupancy by flow cytometry on activated splenic CD4+ T cells of hGITR/hPD-1 KI mice; free GITR detected with competing Anti-hGITR-BV605, total GITR with non-competing Anti-hGITR NANOBODY-A488 [panel B]
From the text: as §2

human PD-1 [11] = target: T4, human PD-1; experiment: receptor occupancy by flow cytometry on activated splenic CD4+ T cells of hGITR/hPD-1 KI mice; free PD-1 detected with competing Anti-hPD-1-BV421, total PD-1 with non-competing Anti-hPD-1 NANOBODY-A647 [panel A]
From the text: as §2

cynomolgus PD-1 [12] = target: T2, cynomolgus PD-1; experiment: flow cytometry on pre-B 300.19 cells expressing cyno PD-1, detection with anti-human IgG Fc F(ab')2 [panel B]
human PD-1 [13] = target: T4, human PD-1; experiment: flow cytometry on pre-B 300.19 cells expressing human PD-1, detection with anti-human IgG Fc F(ab')2 [panel A]

T4 sequence (Q15116 25-288 limits assumed): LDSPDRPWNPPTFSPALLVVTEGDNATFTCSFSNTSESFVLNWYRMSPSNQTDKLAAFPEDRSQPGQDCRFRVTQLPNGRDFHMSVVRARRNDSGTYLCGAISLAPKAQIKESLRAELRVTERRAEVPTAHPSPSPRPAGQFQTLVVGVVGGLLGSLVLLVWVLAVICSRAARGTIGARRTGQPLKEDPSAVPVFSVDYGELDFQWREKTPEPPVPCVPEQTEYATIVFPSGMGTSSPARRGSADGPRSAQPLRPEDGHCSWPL

Binder | EC50 (cynomolgus PD-1 [1]) [pM] | EC50 (cynomolgus GITR [2]) [pM] | EC50 (human PD-1 [3]) [pM] | EC50 (read off the curve) (human GITR [4]) [pM] | EC50 (human GITR [5]) [pM] | EC50 (read off the curve) (human PD-1 [6]) [pM] | cyGITR EC50 (reporter assay) (cynomolgus GITR [7]) [pM] | hGITR EC50 (reporter assay) (human GITR [8]) [pM] | hPD-1 IC50 (reporter assay) (human PD-1 [9]) [pM] | EC50 (read off the curve) (human GITR [10]) [pM] | EC50 (read off the curve) (human PD-1 [11]) [pM] | EC50 (read off the curve) (cynomolgus PD-1 [12]) [pM] | EC50 (read off the curve) (human PD-1 [13]) [pM]
B1 | 370 | 34 | 240 | ~200 | 34 | ~30 | 8.3 | 7.7 | 500 | ~200 | ~30 | – | –
B2 | 580 | 14 | 330 | – | 14 | – | 10 | 8.7 | 560 | – | – | – | –
B3 | – | – | – | – | – | ~300 | – | – | – | – | ~400 | ~400 | ~200
B4 | – | – | – | – | – | – | – | – | – | – | – | ~500 | ~300
